One molecule from PMC7612055 (Nature chemistry, 2021) can be followed below.

The target of the assay is proteasome αΔ12-subunit (Thermoplasma acidophilum, UniProt P25156 13-233). Nature of the assay: native gel or EMSA.
proteasome αΔ12-subunit, sequence (P25156 13-233, stated change not applied): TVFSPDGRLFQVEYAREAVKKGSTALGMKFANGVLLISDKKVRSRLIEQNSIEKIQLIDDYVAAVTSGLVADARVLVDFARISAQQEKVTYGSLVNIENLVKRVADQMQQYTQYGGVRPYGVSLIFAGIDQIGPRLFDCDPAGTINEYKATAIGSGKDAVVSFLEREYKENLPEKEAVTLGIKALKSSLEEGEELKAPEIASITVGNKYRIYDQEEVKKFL

B1: proteasome β-subunit (natural protein)
chain: TTTVGITLKDAVIMATERRVTMENFIMHKNGKKLFQIDTYTGMTIAGLVGDAQVLVRYMKAELELYRLQRRVNMPIEAVATLLSNMLNQVKYMPYMVQLLVGGIDTAPHVFSIDAAGGSVEDIYASTGSGSPFVYGVLESQYSEKMTVDEGVDLVIRAISAAKQRDSASGGMIDVAVITRKDGYVQLPTDQIESRIRKLGLIL
B1: the binding result is “binds”.
